Assay results: US10392620B2, “Cytochrome B (CYTB) nucleic acid molecules that control pathogens” (Dow AgroSciences LLC, priority 2016, dated 2019)

B1: MgCytB-T1: 267 bp dsRNA of Zymoseptoria CytB region 1, location 364-630 (SEQ ID NO:4) (nucleic acid, listed as Zymoseptoria tritici)
chain: GTTCTGATGATGGCAACCGCATTCTTAGGGTATGTATTACCTTATGGTCAAATGTCTTTATGAGGAGCAACAGTTATAACTAACTTATTGAGTGCAATACCTTGAGTTGGACAAGACATAGTTGAATTCGTATGAGGTGGATTTTCTGTTAACAATGCAACATTGAACAGATTCTTTGCTCTACATTTCGTTTTACCGTTTGTGTTAGCTGCATTAGTTTTAATGCATCTAATAGCTTTACACGATACAGCGGGTTCAGGAAATCCT
modifications: complementary strand of dsRNA
B2: MgCytB-T2: 203 bp dsRNA of Zymoseptoria CytB region 2, location 603-805 (SEQ ID NO:5) (nucleic acid, listed as Zymoseptoria tritici)
chain: ACACGATACAGCGGGTTCAGGAAATCCTTTAGGTGTATCAGGTAACTACGATAGATTACCATTCGCCCCTTACTTTATATTCAAAGATTTAATAACAATATTTTTATTCATTATAGTGTTATCAATATTTATTTTCTTTATGCCTAACGTTTTAGGTGACAGCGAGAATTATGTTATGGCTAACCCTATGCAAACTCCACCTG
modifications: complementary strand of dsRNA
B3: MgCytB-T3: 116 bp dsRNA of Zymoseptoria CytB region 3, location 279-394 (SEQ ID NO:6) (nucleic acid, listed as Zymoseptoria tritici)
chain: TTACCTGCACGTGGGTAGAGGGTTATACTACGGGTCATACAAAGCCCCTAGAACATTAACATGAACAATCGGTACTATAATACTAGTTCTGATGATGGCAACCGCATTCTTAGGGT
modifications: long dsRNA, chemistry not given here, further chemistry not given here
B4: MgCytB-T4: 219 bp dsRNA of Zymoseptoria CytB region T4, location 1-219 (SEQ ID NO:7) (nucleic acid, listed as Zymoseptoria tritici)
chain: ATGAGGATTTGGAAGAGTCACCCTTTATTTAGTCTGGTTAATGGTTATCTTATCGATTCACCACAACCAAGTAATCTAAGCTATCTATGAAATTTCGGTTCATTACTGGGATTTTGTCTTGTAATACAAATCGTTACTGGTGTTACACTTGCTATGCATTATAACCCTAGCGTATCTGAAGCATTTAACTCAGTTGAACACATAATGAGAGATGTAAAC
modifications: complementary strand of dsRNA
B5: MgCytB-T5: 172 bp dsRNA of Zymoseptoria CytB region T5, location 173-344 (SEQ ID NO:8) (nucleic acid, listed as Zymoseptoria tritici)
chain: TATCTGAAGCATTTAACTCAGTTGAACACATAATGAGAGATGTAAACAATGGATGACTTATACGTTATCTTCACTCTAATACTGCTTCAGCTTTCTTCTTTTTAGTTTACCTGCACGTGGGTAGAGGGTTATACTACGGGTCATACAAAGCCCCTAGAACATTAACATGAAC
modifications: complementary strand of dsRNA
B6: MgCytB-T6: 258 bp dsRNA of Zymoseptoria CytB region T6, location 775-1032 (SEQ ID NO:9) (nucleic acid, listed as Zymoseptoria tritici)
chain: GTTATGGCTAACCCTATGCAAACTCCACCTGCTATAGTGCCTGAATGATATTTATTACCTTTCTACGCTATACTAAGATCAATACCTAACAAACTATTAGGTGTGATCGCAATGTTTTCTGCTATATTGATTATAATGATAATGCCAATTACCGATTTAGGTAGAAGTAGAGGATTACAGTTTAGACCTTTAAGCAAGATCACATTTTACATATTTGTTGCTAACTTCTTAGTATTAATGCAATTAGGTGCTAATCAC
modifications: complementary strand of dsRNA
B7: MgCytB-T7: 221 bp dsRNA of Zymoseptoria CytB region T7, location 947-1167 (SEQ ID NO:10) (nucleic acid, listed as Zymoseptoria tritici)
chain: GATTACAGTTTAGACCTTTAAGCAAGATCACATTTTACATATTTGTTGCTAACTTCTTAGTATTAATGCAATTAGGTGCTAATCACGTTGAGTCACCATTTATAGAATTTGGGCAAATTAGTACAGTACTGTACTTTTCACATTTCTTAATCATAGTGCCTCTAGTAAGCTTAATCGAGAATACTTTAGTGGATATGCACTTAAACAACACAATAACGTAA
modifications: complementary strand of dsRNA

Tested on: Zymoseptoria tritici (SEPTTR-184)
Experiment: Efficacy of target gene fragments (MgCytB dsRNA tiles) on wheat plants, SEPTTR-184
Format: in vivo
Set-up: Average of 2 trials SEPTTR-184 3DC / Average of 2 trials SEPTTR-184 1DP: scale not given here
Settings: 1DP (preventative)
Method: The 200 ppm rate for each treatment was prepared by adding the calculated volume of the corresponding dsRNA solution in TE buffer. Lower rates were prepared as 4-fold dilutions (50 ppm, 12.5 ppm, and 3.12 ppm). A non-target dsRNA control (YFP), a TE/phosphate buffer control, disease pressure control, and clean plant control were included.
(§1) These plants were inoculated with an aqueous spore suspension of Zymoseptoria tritici either prior to or after fungicidal treatments. After inoculation the plants were kept in 100% relative humidity to allow spores to germinate and infect the leaves. The plants were then transferred to a greenhouse until disease developed.

Molecule | ED50 SEPTTR-184 1DP [ppm] | ED80 SEPTTR-184 1DP [ppm]
B1 | <3.125 | 200
B2 | <3.125 | >200
B3 | <3.125 | >200
B4 | <3.125 | >200
B5 | <3.125 | >200
B6 | <3.125 | >200
B7 | <3.125 | >200

Same assay, conditions: 1DP (preventative); average of 200, 50, 12.5, 3.125 ppm

Molecule | Disease Control All Rates Average SEPTTR-184 1DP [%]
B1 | 66
B2 | 71
B3 | 68
B4 | 73
B5 | 71
B6 | 73
B7 | 69

Same assay, conditions: 1DP (preventative); sum over 200, 50, 12.5, 3.125 ppm

Molecule | Sum of Disease Control SEPTTR-184 1DP [%]
B1 | 263
B2 | 285
B3 | 271
B4 | 292
B5 | 284
B6 | 293
B7 | 275

Same assay, conditions: 3DC (curative)

Molecule | ED50 SEPTTR-184 3DC [ppm] | ED80 SEPTTR-184 3DC [ppm]
B1 | <3.125 | 159
B2 | <3.125 | 27
B3 | <3.125 | <3.125
B4 | <3.125 | 44
B5 | 4.605 | 200
B6 | <3.125 | >200
B7 | <3.125 | >200

Same assay, conditions: 3DC (curative); average of 200, 50, 12.5, 3.125 ppm

Molecule | Disease Control All Rates Average SEPTTR-184 3DC [%]
B1 | 79
B2 | 82
B3 | 84
B4 | 79
B5 | 66
B6 | 60
B7 | 74

Same assay, conditions: 3DC (curative); sum over 200, 50, 12.5, 3.125 ppm

Molecule | Sum of Disease Control SEPTTR-184 3DC [%]
B1 | 318
B2 | 329
B3 | 334
B4 | 316
B5 | 265
B6 | 239
B7 | 297

Same assay, conditions: 3.125 ppm; 1DP (preventative)

Molecule | Average of 2 trials SEPTTR-184 1DP
B1 | 53
B2 | 67
B3 | 59
B4 | 71
B5 | 68
B6 | 72
B7 | 60

Same assay, conditions: 3.125 ppm; 3DC (curative)

Molecule | Average of 2 trials SEPTTR-184 3DC
B1 | 77
B2 | 77
B3 | 84
B4 | 76
B5 | 47
B6 | 53
B7 | 76

Same assay, conditions: 12.5 ppm; 1DP (preventative)

Molecule | Average of 2 trials SEPTTR-184 1DP
B1 | 58
B2 | 71
B3 | 64
B4 | 74
B5 | 68
B6 | 77
B7 | 69

Same assay, conditions: 12.5 ppm; 3DC (curative)

Molecule | Average of 2 trials SEPTTR-184 3DC
B1 | 76
B2 | 77
B3 | 84
B4 | 75
B5 | 66
B6 | 63
B7 | 72

Same assay, conditions: 50 ppm; 1DP (preventative)

Molecule | Average of 2 trials SEPTTR-184 1DP
B1 | 71
B2 | 71
B3 | 74
B4 | 73
B5 | 73
B6 | 72
B7 | 71

Same assay, conditions: 50 ppm; 3DC (curative)

Molecule | Average of 2 trials SEPTTR-184 3DC
B1 | 79
B2 | 85
B3 | 81
B4 | 81
B5 | 72
B6 | 64
B7 | 73

Same assay, conditions: 200 ppm; 1DP (preventative)

Molecule | Average of 2 trials SEPTTR-184 1DP
B1 | 80
B2 | 77
B3 | 74
B4 | 74
B5 | 76
B6 | 72
B7 | 75

Same assay, conditions: 200 ppm; 3DC (curative)

Molecule | Average of 2 trials SEPTTR-184 3DC
B1 | 85
B2 | 90
B3 | 84
B4 | 83
B5 | 80
B6 | 59
B7 | 76

Same assay, conditions: in vivo

Molecule | level of control, ranking among fragments
B3 | best level of control

Tested on: Zymoseptoria tritici (SEPTTR) US-184
Experiment: CytB dsRNA foliar application bioassay on wheat seedlings, SEPTTR US-184
Format: in vivo
Settings: compared to the non-treated control; strain not given
Method: RNAi (dsRNA) fungicidal solutions were prepared in TE buffer (pH 8.0), which were then mixed with 9 volumes of phosphate buffer (pH 7.5) containing 0.1% Triton X-100. The fungicidal solutions were applied to wheat seedlings using an automated booth sprayer to run-off. All sprayed plants were allowed to air dry prior to further handling.
The following served as controls: 1% silwet in phosphate buffer control, disease pressure control (untreated), and clean plant control (negative control).
as §1

Molecule | control of Septoria leaf blotch on wheat seedlings
B1 | observed to control Septoria leaf blotch
B2 | observed to control Septoria leaf blotch
B3 | observed to control Septoria leaf blotch
